# Biological target: T1, MDM2 (UniProt Q00987 1-491, limits assumed)
# T1 construct: Endogenous MDM2 of HCT116 cells
# Test: anti-V5 immunoprecipitation from transfected HCT116 cell lysates, blot probed with anti-MDM2
# T1 sequence (Q00987 whole entry): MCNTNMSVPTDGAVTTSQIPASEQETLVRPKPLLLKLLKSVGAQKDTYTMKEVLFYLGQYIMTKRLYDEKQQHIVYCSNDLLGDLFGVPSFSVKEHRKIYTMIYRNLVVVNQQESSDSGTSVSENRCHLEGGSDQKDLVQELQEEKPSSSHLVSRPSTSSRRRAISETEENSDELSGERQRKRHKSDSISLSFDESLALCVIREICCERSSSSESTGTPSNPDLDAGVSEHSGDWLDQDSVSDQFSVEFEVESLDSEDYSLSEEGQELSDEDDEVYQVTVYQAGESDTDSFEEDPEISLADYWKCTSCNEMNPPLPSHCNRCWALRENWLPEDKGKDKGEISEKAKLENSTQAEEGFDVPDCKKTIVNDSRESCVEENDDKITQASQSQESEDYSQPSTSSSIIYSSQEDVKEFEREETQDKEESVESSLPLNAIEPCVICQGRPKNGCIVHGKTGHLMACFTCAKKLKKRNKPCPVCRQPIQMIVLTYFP
row,Binder,binding result
1,"SQT(MDM2)(L2).P3848.cV5 (designed binder, also called P3848 peptide in Loop 2 of SQT; SQT-MDM2 construct 5) MIPRGLSEAKPATPEIQEIVDKVKPQLEEKTNETYGKLEAVQYKTQVLASTNYYIKVRAGDNKYMHLKVFNGPLTFEHYWAQLTSPGQNADRVLTGYQVDKNKDDELTGFGKPIPNPLLGLDST",binds
2,"SQT(MDM2)(L2).P1E6W.cV5 (designed binder, also called P1E6W peptide in Loop 2 of SQT; SQT-MDM2 construct 6) MIPRGLSEAKPATPEIQEIVDKVKPQLEEKTNETYGKLEAVQYKTQVLASTNYYIKVRAGDNKYMHLKVFNGPETFEHWWAQLTSPGQNADRVLTGYQVDKNKDDELTGFGKPIPNPLLGLDST",binds
3,"SQT(MDM2)(nt).P7041.cV5 (designed binder, also called P7041 peptide in N-terminus of SQT; SQT-MDM2 construct 2) MIPRLTFEEYWAQLLSAAGLSEAKPATPEIQEIVDKVKPQLEEKTNETYGKLEAVQYKTQVLASTNYYIKVRAGDNKYMHLKVFNGPPGQNADRVLTGYQVDKNKDDELTGFGKPIPNPLLGLDST",binds
4,"SQT(MDM2)(nt).P6W.cV5 (designed binder, also called P6W peptide in N-terminus of SQT; SQT-MDM2 construct 7) MIPRLTFEHWWAQLTSGLSEAKPATPEIQEIVDKVKPQLEEKTNETYGKLEAVQYKTQVLASTNYYIKVRAGDNKYMHLKVFNGPPGQNADRVLTGYQVDKNKDDELTGFGKPIPNPLLGLDST",binds
5,"SQT(MDM2)(nt).pDIQ.cV5 (designed binder, also called pDIQ peptide in N-terminus of SQT; SQT-MDM2 construct 3) MIPRETFEHWWSQLLSGLSEAKPATPEIQEIVDKVKPQLEEKTNETYGKLEAVQYKTQVLASTNYYIKVRAGDNKYMHLKVFNGPPGQNADRVLTGYQVDKNKDDELTGFGKPIPNPLLGLDST",binds
6,"SQT(MDM2)(nt).pMI.cV5 (designed binder, also called pMI peptide in N-terminus of SQT; SQT-MDM2 construct 4) MIPRTSFAEYWNLLSPGLSEAKPATPEIQEIVDKVKPQLEEKTNETYGKLEAVQYKTQVLASTNYYIKVRAGDNKYMHLKVFNGPPGQNADRVLTGYQVDKNKDDELTGFGKPIPNPLLGLDST",binds
